Where no end group is shown, it is not given here.
T1: VE-cadherin/Fc chimeric protein (UniProt P33151 48-593)
T1 construct: Bought from R&D Systems; also called vascular endothelial (VE)-cadherin/Fc chimeric protein; not shown: Fc part not described
T1 sequence (looked up): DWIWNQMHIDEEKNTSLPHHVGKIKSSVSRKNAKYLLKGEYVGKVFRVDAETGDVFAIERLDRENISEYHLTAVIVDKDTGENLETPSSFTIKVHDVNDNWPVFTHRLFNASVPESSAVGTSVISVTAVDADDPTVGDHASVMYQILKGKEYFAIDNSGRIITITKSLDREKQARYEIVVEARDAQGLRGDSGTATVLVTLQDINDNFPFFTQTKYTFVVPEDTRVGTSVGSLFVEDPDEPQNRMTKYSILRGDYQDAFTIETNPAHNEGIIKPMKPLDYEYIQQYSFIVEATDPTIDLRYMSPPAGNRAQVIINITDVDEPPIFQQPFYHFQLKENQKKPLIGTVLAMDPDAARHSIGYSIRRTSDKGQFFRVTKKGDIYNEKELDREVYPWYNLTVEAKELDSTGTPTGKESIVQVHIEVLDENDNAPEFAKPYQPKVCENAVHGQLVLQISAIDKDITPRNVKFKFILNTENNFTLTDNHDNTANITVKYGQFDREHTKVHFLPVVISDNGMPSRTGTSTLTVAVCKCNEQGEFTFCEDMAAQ

T2: E-cadherin/Fc chimeric protein (human, UniProt P12830 155-707)
T2 construct: range 155-707; Bought from R&D Systems; also called E-cad/Fc; human E-cadherin/Fc chimeric protein; not shown: Fc region of human IgG1
T2 sequence (looked up): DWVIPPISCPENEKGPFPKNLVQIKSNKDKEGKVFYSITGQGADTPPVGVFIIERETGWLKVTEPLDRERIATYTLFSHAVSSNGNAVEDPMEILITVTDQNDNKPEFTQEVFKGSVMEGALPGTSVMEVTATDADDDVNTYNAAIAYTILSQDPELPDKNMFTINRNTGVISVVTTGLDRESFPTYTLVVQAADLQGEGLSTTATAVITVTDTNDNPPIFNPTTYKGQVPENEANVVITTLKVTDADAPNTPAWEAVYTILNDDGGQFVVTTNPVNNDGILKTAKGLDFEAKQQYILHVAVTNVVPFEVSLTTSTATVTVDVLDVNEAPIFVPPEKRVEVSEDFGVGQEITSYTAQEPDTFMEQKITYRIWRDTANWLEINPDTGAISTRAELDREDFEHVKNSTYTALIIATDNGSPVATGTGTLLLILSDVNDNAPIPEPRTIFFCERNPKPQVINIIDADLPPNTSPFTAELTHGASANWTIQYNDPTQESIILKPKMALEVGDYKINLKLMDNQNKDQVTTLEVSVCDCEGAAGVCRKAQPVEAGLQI

T3: N-cadherin/Fc chimeric protein (human, UniProt P19022 160-724)
T3 construct: range 160-724; Bought from R&D Systems; also called N-cad/Fc; human N-cadherin/Fc chimeric protein; not shown: Fc region of human IgG1
T3 sequence (looked up): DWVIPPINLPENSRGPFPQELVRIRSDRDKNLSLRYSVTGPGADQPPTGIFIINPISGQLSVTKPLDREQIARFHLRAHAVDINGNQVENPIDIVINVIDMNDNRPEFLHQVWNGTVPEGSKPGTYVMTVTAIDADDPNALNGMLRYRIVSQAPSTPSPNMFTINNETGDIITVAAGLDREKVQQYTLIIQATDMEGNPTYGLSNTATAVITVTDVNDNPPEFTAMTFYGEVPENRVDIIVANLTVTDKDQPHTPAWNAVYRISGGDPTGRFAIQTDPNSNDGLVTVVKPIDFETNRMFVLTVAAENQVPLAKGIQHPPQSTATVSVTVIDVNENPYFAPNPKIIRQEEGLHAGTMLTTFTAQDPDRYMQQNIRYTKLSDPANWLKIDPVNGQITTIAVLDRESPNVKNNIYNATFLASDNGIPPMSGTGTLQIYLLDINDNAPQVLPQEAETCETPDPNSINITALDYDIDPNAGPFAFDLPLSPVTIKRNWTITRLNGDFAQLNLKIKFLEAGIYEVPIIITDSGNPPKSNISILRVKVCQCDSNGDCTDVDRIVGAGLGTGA


How the values were obtained:
Experiment in all cases: phage ELISA
[1] = molecular target: T1, VE-cadherin/Fc chimeric protein
Description: (§1) The binding of each clone to the cadherin/Fc chimeric proteins was confirmed by ELISA. Wells of ProBind microtiter plates (Falcon) were coated with either N-cadherin/Fc or E-cadherin/Fc chimeric protein (100 ng/well) or human IgG1 (which contains the Fc fragment) (100 ng/well). After blocking the nonspecific sites with TBS containing 3% BSA and 1.2 mM CaCl₂ for 1 h at 37° C., phage clones (10⁹ pfu) diluted in TBST containing 3% BSA and 1.2 mM CaCl₂ (100 μl/well). Non-coated wells were also used to exclude any phage that bound to the plastic surface. After 1 h incubation at room temperature, wells were washed 3 times with TBST containing 3% BSA and 1.2 mM CaCl₂. M13 phage without any insert were used to control the non-specific binding of the phage itself to the target. Monoclonal anti-M13 antibody conjugated to horseradish peroxidase (Amersham Biosciences, Piscataway, N.J.) was diluted in TBST containing 3% BSA and 1.2 mM CaCl₂ (1:2,000) and added to each well (100 μl/well). After 1 h incubation at room temperature, wells were washed three times with TBST containing 3% BSA and 1.2 mM CaCl₂ and once with TBS containing 1.2 mM CaCl₂. Horseradish peroxidase substrate, TMB (Sigma), was added to each well (100 μl/well and after color development the reaction was stopped by addition of 100 μl 0.5 M sulphuric acid to each well. The intensity of the color was measured at 450 nm.
(§2) The phage clones shown to bind to the N-cadherin/Fc chimeric protein by ELISA were also evaluated for their ability to bind to E-cadherin/Fc and VE-cadherin/Fc chimeric proteins. The phage clones shown to bind to the E-cadherin/Fc chimeric protein by ELISA were also evaluated for their ability to bind to N-cadherin/Fc and VE-cadherin/Fc chimeric proteins. The same ELISA protocol described in the previous section was used to perform this evaluation with the exception that the wells were coated with either 100 ng N-cadherin/Fc, E-cadherin/Fc or VE-cadherin/Fc chimeric protein (R&D Systems, Minneapolis, Minn.).

[2] = molecular target: T2, E-cadherin/Fc chimeric protein
Description: as §1, §2

[3] = molecular target: T3, N-cadherin/Fc chimeric protein
Description: as §1, §2

Binder | binding result [1] | binding result [2] | binding result [3]
EWFWSWPGYSNT (whole phage in the assay) [phage clone Ec 12-a13] | no binding (tested: 10^9 pfu) | binds | binds
SWTFYWPDAQLG (whole phage in the assay) [phage clone Ec 12-06] | no binding (tested: 10^9 pfu) | binds | binds
WTMCYPDTC (not fully specified; cysteine pairing not given here; also: displayed on M13 phage pIII, whole phage in the assay) [phage clone Ec 7] | no binding (tested: 10^9 pfu) | binds | binds
QWTYYLPLTPRW (whole phage in the assay) [phage clone Ec 12-a4] | no binding (tested: 10^9 pfu) | binds | binds
WQFCYAQHC (not fully specified; cysteine pairing not given here; also: displayed on M13 phage pIII, whole phage in the assay) [phage clone Ec 2] | no binding (tested: 10^9 pfu) | binds | binds
SWELYYPLRANL (whole phage in the assay) [phage clone Ec 12-a2] | no binding (tested: 10^9 pfu) | binds | binds
SWEWYIPYLNRT (whole phage in the assay) [phage clone Ec 12-a11] | no binding (tested: 10^9 pfu) | binds | binds
AWTWSLPTLPQS (whole phage in the assay) [phage clone Ec 12-a5] | no binding (tested: 10^9 pfu) | binds | binds
WQWCFKATC (not fully specified; cysteine pairing not given here; also: displayed on M13 phage pIII, whole phage in the assay) [phage clone Ec 21] | no binding (tested: 10^9 pfu) | binds | binds
EWQYHWPTLQSR (whole phage in the assay) [phage clone Ec 12-22] | no binding (tested: 10^9 pfu) | binds | binds
WQMVLCPAC (not fully specified; cysteine pairing not given here; also: displayed on M13 phage pIII, whole phage in the assay) [phage clone Ec 4] | no binding (tested: 10^9 pfu) | binds | binds
QWEIRYPWPSMG (whole phage in the assay) [phage clone Ec 12-a1] | no binding (tested: 10^9 pfu) | binds | binds
WTFNFCTAC (not fully specified; cysteine pairing not given here; also: displayed on M13 phage pIII, whole phage in the assay) [phage clone Ec a5] | no binding (tested: 10^9 pfu) | binds | binds
SWTWHFPESPPP (whole phage in the assay) [phage clone Ec 12-01] | no binding (tested: 10^9 pfu) | binds | binds
GWTVFYPDNLRP (whole phage in the assay) [phage clone Ec 12-18] | no binding (tested: 10^9 pfu) | binds | binds
EWTWVFPTTHTS (whole phage in the assay) [phage clone Ec 12-07] | no binding (tested: 10^9 pfu) | binds | binds
EWTFQWNSYPAD (whole phage in the assay) [phage clone Ec 12-10] | no binding (tested: 10^9 pfu) | binds | binds
QWEWHYMAGYLA (whole phage in the assay) [phage clone Ec 12-15] | no binding (tested: 10^9 pfu) | binds | binds
QWTITYPKPPAL (whole phage in the assay; also called QWTITYPKPPAL) [phage clone Ec 12-13] | no binding (tested: 10^9 pfu) | binds | binds
EWTYTFPTAHSI (whole phage in the assay) [phage clone Ec 12-a18] | no binding (tested: 10^9 pfu) | binds | binds
EWDFFWPPTQTP (whole phage in the assay) [phage clone Ec 12-19] | no binding (tested: 10^9 pfu) | binds | binds
QWQLHWPASKQA (whole phage in the assay) [phage clone Ec 12-11] | no binding (tested: 10^9 pfu) | binds | binds
WELVQCLTC (not fully specified; cysteine pairing not given here, whole phage in the assay) [phage clone Ec 1] | no binding (tested: 10^9 pfu) | binds | binds

From patent US20100240066A1 (MCGILL UNIVERSITY, published 2010)
